Data reported in patent US12168677B2, “Proteins for the treatment of epithelial barrier function disorders” (Genevive, Inc., priority 2017, dated 2024).

B1: SG-16: 119 amino acid protein (SEQ ID NO:9) encoded by the genome of Eubacterium eligens (protein, listed as Eubacterium eligens)
chain: MTGCSGSKEPDNKTSVDYTVVENADLPEELKKLIESKKDKVMRLTYTTKDYTYVVAGYGTRETSGYSIKVNDVYTGDNALYIDLNLIGPAAGEAVNEVETYPVIVLKMERREESVVFKM
B2: SG-18: 267 amino acid protein (SEQ ID NO:19) encoded by the genome of Clostridium bartlettii sp. nov. (protein, listed as Clostridium bartlettii)
chain: EVDSSKEQATSKDEKQVVVATSVAITEILDRLGVEVSGVPQTSYELPESAKGATEIGSPMNPDMEIIKSLNPTDVICVDTLGSDFEKQFEENNINADFYNLSNVDGLKETIAALGEKFNKQDKANEILDEIKEVENKVNSNKKSDDKILVLFGAPGSVMVATDKSYIGNLVELAGGNNIFSNATSSFTQINLEEIIKLNPDKILVMTHAVPEAAKKSVEEELSKDLWKNVNAVKNNDITYLENGYFGMSANLQIVEAVEKLGDILYE
B3: SG-17: 327 amino acid protein (SEQ ID NO:13) encoded by the genome of Eubacterium eligens (protein, listed as Eubacterium eligens)
chain: CNSKIDVKYDYNVEDYVQLGQYENISVQVDKTSIENELIESKIKQDVEDNTTYTEVDRGAIASDQILVTYTATSSGASLSGLTNTDGKTMILGTDTLGLELDELDQALYGMTPGQTKILIVDIPEDYSSDLYKGTRVVFELTMQTVAQANVPMITNAYVKEAFGYDTVEEYRQSIKESLETDINSKVENKIQEDVLSSLQDTFKISSYPDSLMEETRSRLETSIGFYADFSNLSKDEYCQKQYGLSFDDFVKKSVVQQLIMEAIVKDRNMTMREYDYKGSLDDFAADNGYSNADTFVEKFGKDKIVKAMLVQKAQDYVIEHANISYK
B4: SG-15: 400 amino acid protein (SEQ ID NO:1) encoded by the genome of Eubacterium eligens (protein, listed as Eubacterium eligens)
chain: EYTEIRTASELVEAAKSASGNYKLMTDIDMTGVEWTPWDFSGTFDGNGHSILNLSVKTVSKKTMKTYDGNRKEYKTYGAGFFGVLTGAKVTGLDIYGARIEITTTEPCFAAPIAGLADDSDISDCIIKDTYVSLTDSAKMWGTGGIAGFGSGNLDNITTDVTLVCVDTDAAVRDEQFMGGAYAAGFLNIRNCSITIDGYDSDHGYVHDGGLVGMYMVYPLELSKTYQGEVLNNKVKGMITFFEDNTDRRAYCQANMGEVMNWTYAYSGFTSDFKRNETYDYSVTLLPEMCSNPSYTDVVTEATASDFGYTTHTCSTCGYTYSDTYTIHEHKVDSYSVVKEAASTDKKDGIEAGTCSLCNQTVYREYAANVVTDDNTQATDNKASGTAVKKGMKESTAVFA

Columns and labels:
Type in all cases: cell-based, human
[1] = tested on: HCT8 enterocytes and HT29-MTX goblet cells; experiment: Co-culture trans-epithelial electrical resistance (TEER) assay with heat killed E. coli challenge; settings: TEER after 24 hours
Method: Assays were performed as described below in trans-well plates where co-cultures of multiple cell types were performed utilizing a permeable membrane to separate cells. In the apical (top) chamber, human colonic epithelial cells, consisting of a mixture of enterocytes and goblet cells, were cultured until cells obtained tight junction formation and barrier function capacity as assessed by measurement of trans-epithelial electrical resistance (TEER). In the basolateral chamber, monocytes were cultured separately. Epithelial cells were primed with inflammatory cytokines. The assays measured the effect of a therapeutic protein, i.e., SG-15, on epithelial barrier function, wound healing, and production of cytokines. Cell culture. The HCT8 human enterocyte cell line (ATCC Cat. No. CCL-244) was maintained in RPMI-1640 medium supplemented with 10% fetal bovine serum, 100 IU/ml penicillin, 100 μg/ml streptomycin, 10 μg/ml gentamicin and 0.25 μg/ml amphotericin (cRPMI). HT29-MTX human goblet cells (Sigma-Aldrich (St. Louis, MO; Cat. No. 12040401) were maintained in DMEM medium with 10% fetal bovine serum, 100 IU/ml penicillin, 100 μg/ml streptomycin, 10 μg/ml gentamicin and 0.25 μg/ml amphotericin (cDMEM). Epithelial cells were passaged by trypsinization and were used between 5 and 15 passages following thawing from liquid nitrogen stocks. U937 monocytes (ATCC Cat. No. 700928) were maintained in cRPMI medium as a suspension culture, and split by dilution as needed to maintain cells between 5×10^5 and 2×10^6 cells/ml. U937 cells were used up to passage 18 following thawing from liquid nitrogen stocks. Epithelial cell culture. A mixture of HCT8 enterocytes and HT29-MTX goblet cells were plated at a 9:1 ratio, respectively, in the apical chamber of the transwell plate as described previously (Berget et al., 2017, Int J Mol Sci, 18:1573; Beduneau et al., 2014, Eur J Pharm Biopharm, 87:290-298). A total of 10^5 cells were plated in each well (9×10^4 HCT8 cells and 1×10^4 HT29-MTX cells per well). Epithelial cells were trypsinized from culture flasks and viable cells determined by trypan blue counting. The correct volumes of each cell type were combined in a single tube and centrifuged. The cell pellet was resuspended in cRPMI and added to the apical chamber of the transwell plate. […] Monocyte culture. On day 6 of epithelial cell culture 2×10^5 cells/well U937 monocytes were plated into a 96 well receiver plate. […] Co-culture assay. […] After 24 hours fresh cRPMI was added to the epithelial cell culture plate. Trans-epithelial electrical resistance (TEER) readings were measured after the IFN-γ treatment and were used as the pre-treatment TEER values. SG-15 was then added to the apical chamber of the transwell plate at a final concentration of 1 μg/ml (40 nM). The myosin light chain kinase (MLCK) inhibitor peptide 18 (BioTechne, Minneapolis, MN) was used at 50 nM as a positive control to prevent inflammation induced barrier disruption (Zolotarevskky et al., 202, Gastroenterology, 123:163-172). The bacterially derived molecule staurosporine was used at 100 nM as a negative control to induce apoptosis and exacerbate barrier disruption (Antonsson and Persson, 2009, Anticancer Res, 29:2893-2898). […] Following pre-incubation with test compounds the transwell insert containing the enterocytes was transferred on top of the receiver plate containing U937 monocytes. Heat killed E. coli (HK E. coli) (bacteria heated to 80° C. for 40 minutes) was then added to both the apical and basolateral chambers and a multiplicity of infection (MOI) of 10. […] The TEER assays were performed with recombinantly expressed mature (lacking a signal peptide) SG-15 protein such as that described in Example 1A above. Data analysis. Raw electrical resistance values in ohms (Ω) were converted to ohms per square centimeter (Ωcm^2) based on the surface area of the transwell insert (0.143 cm^2). […]

IL-10 = IL-10 production by monocytes in co-culture TEER assay (Luminex); settings: pre-incubated 6 hours prior to HK E. coli; basolateral supernatant
Method: Production of the cytokines TNF-α, IL-23, and IL-10 by monocytes was measured in the tissue culture supernatant from the basolateral chamber of the co-culture TEER assay performed in Example 1B. Following TEER readings, the supernatants were centrifuged at 10,000 g for 5 minutes at 4° C. to remove cell debris. Luminex analysis was performed according to the manufacturer's instructions (Magpix instrument and xPonent software version 4.2; Luminex Corporation (Austin, TX)). Luminex analysis was performed to determine the […] concentration of TNF-α and IL-23 produced by monocytes. Luminex analysis utilizes a bead-based system for quantification of multiple cytokines from a single sample. Like an ELISA, Luminex beads are coated with a capture antibody, and incubation with samples allows the target to bind to the capture antibody. Beads are washed and incubated with a fluorescently labeled detection antibody for quantification of bound target. Cytometric analysis is used to differentiate bead populations, which are loaded with differential fluorescent dyes, and to quantify cytokine levels by measuring detection antibody signal. TNF-α, IL-23, and IL-10 production in untreated cells and cells pre-incubated with SG-15 for 6 hours prior to HK E. coli treatment was normalized to pg/ml concentrations elicited by HK E. coli only, which was set to 1.0. […] The graphs in FIGS. 2A, 2B and 2C each represent data pooled from an individual experiment (n=3).

[2] = tested on: HCT8 enterocytes and HT29-MTX goblet cells; experiment: Epithelial cell wound healing (Oris Cell Migration assay); settings: SG protein 1 μg/ml, EGF 30 ng/ml, staurosporine 100 nM; 48 hours
Description: HCT8 enterocytes and HT29-MTX goblet cells were used in wound healing studies. The 96 well Oris Cell Migration assay containing plugs preventing cell attachment in the center of each well was used according to the manufacturer's instructions (Platypus Technologies, Madison, WI). The migration assay plates were warmed to room temperature prior to use and plugs were removed from 100% confluence wells prior to cell addition. The HCT8 enterocyte and HT29-MTX goblet cell lines were used at a 9:1 ratio with a total of 5×10^4 total cells added per well (4.5×10^4 HCT8 cells and 0.5×10^4 HT29-MTX cells). […] Plugs were then removed from all control and sample wells. Control wells included cells treated with the diluent vehicle as the blank, 30 ng/ml epidermal growth factor (EGF) as the positive control, and 100 nM staurosporine as the negative control, all diluted in cRPMI. Sample wells contained SG-15 protein at a concentration of 1 μg/ml diluted in cRPMI. 100% and 0% wells were cultured in cRPMI. […] Prior to staining for viable cells, plugs were removed from the 0% wells. Treatment media was removed and cells were washed in PBS containing 0.9 mM CaCl2) and 0.5 mM MgCl2. […] Relative fluorescent values from 100% wells where plugs were removed prior to cell plating were set as the max effect, and 0% wells where plugs remained in place until immediately before staining were used as the baseline. Samples were normalized between 100% and 0% samples and values expressed as a percent growth.

[3] = protein 1 μg/ml (40 nM) added 30 minutes before HK E. coli
[4] = protein 1 μg/ml (40 nM) pre-incubated 6 hours before HK E. coli

| Molecule | TEER of epithelial cell barrier (percent of untreated samples) [1, 3] | TEER of epithelial cell barrier (percent of untreated samples) [1, 4] | IL-10 production normalized to HK E. coli only (set to 1.0) (IL-10) | Wound healing, percent growth [2] |
| --- | --- | --- | --- | --- |
| B1 | 60.7% | about 60.0% | 1.23 | significant increase in growth |
| B2 | 71.0% | about 85.0% | 0.93 | slight increase in growth |
| B3 | 72.0% | about 74.2% | 0.51 | significant increase in growth |
| B4 | 71.4% | 68.5% | 0.66 | significant increase in growth |
